The values that follow are results of earlier work, collected in paper PMC11083953.

In general, Kd refers to a measure of binding affinity in units of concentration.

One data set addresses CD38 (Homo sapiens) (UniProt P28907).
In the next data set the target is CD20 (Homo sapiens) (UniProt P11836).
CD20 (Homo sapiens), sequence (P11836 whole entry): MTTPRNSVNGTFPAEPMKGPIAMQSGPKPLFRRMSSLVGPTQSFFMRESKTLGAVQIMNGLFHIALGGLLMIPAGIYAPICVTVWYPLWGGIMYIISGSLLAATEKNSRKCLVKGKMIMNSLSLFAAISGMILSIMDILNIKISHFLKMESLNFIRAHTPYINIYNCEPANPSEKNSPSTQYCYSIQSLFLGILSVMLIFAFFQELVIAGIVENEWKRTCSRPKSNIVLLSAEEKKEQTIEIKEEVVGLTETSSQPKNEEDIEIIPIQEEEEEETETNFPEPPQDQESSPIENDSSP

Take daratumumab: in the data set with CD38 (Homo sapiens), the Kd was 4.36 nM. Regarding rituximab, the Kd with CD20 (Homo sapiens) was 8 nM.
